Reference: the supplement of paper PMC10724198
± gives the standard deviation of the averaged measurements.

Legend:
[1] = tested on: Saccharomyces cerevisiae; experiment: protein stability index of tFT-peptide fusion (C-terminal peptide) (PSI (0-1 scale)); higher = more stable (slower turnover)
Experimental: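 MPS profiling in S. cerevisiae of the tFT-X12 degron library: putative degron peptides plus stable controls, 12 aa, fused to the C-terminus of a sfGFP-mCherry timer. Cells are FACS-sorted into 8 mCherry/sfGFP bins and deep-sequenced. PSI runs from 0 (unstable) to 1 (stable). Backgrounds are wild type, das1Δ and doa10Δ at 30 °C, and wild type, das1Δ, cdc34-1 and cdc53-1 at 37 °C; 2-3 technical replicates each.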

[2] = tested on: Saccharomyces cerevisiae; experiment: as above; details: genetic background: wild type; temperature: 30 C
[3] = genetic background: cdc34-1, temperature: 37 C
[4] = genetic background: cdc53-1, temperature: 37 C
[5] = genetic background: das1 deletion, temperature: 30 C
[6] = genetic background: das1 deletion, temperature: 37 C
[7] = genetic background: doa10 deletion, temperature: 30 C
[8] = genetic background: wild type, temperature: 30 C
[9] = genetic background: wild type, temperature: 37 C
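Also: PSI is a weighted mean of sequencing reads over stability bins, variants kept only with over 10 reads, mCherry proximal and sfGFP distal, peptide attached via GGGS linker.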

Sequence	protein stability index [1, 3]	protein stability index [1, 4]	protein stability index [1, 5]	protein stability index [1, 6]	protein stability index [1, 7]	protein stability index [1, 8]	protein stability index [1, 9]	protein stability index [2]
ERFILVGMFGSW	0.702 ± 0.036	0.717 ± 0.015	0.519 ± 0.017	0.708 ± 0.0095	0.532 ± 0.026	0.529 ± 0.027	0.701 ± 0.022	0.532 ± 0.048
MFRSEVSWKLCC	0.619 ± 0.071	0.727 ± 0.015	0.624 ± 0.019	0.753 ± 0.011	0.1344 ± 0.00047	0.174 ± 0.025	0.409 ± 0.025	0.285 ± 0.054
DRYSFYGYVVVL	0.587 ± 0.021	0.632 ± 0.05	0.512 ± 0.042	0.66198 ± 4.4e-05	0.1728 ± 0.0011	0.186 ± 0.02	0.291 ± 0.041	0.261 ± 0.0095
ASVSVWCVSVVV	0.124 ± 0.017	0.166 ± 0.0023	0.103 ± 0.02	0.1641 ± 0.00088	0.087 ± 0.024	0.109 ± 0.017	0.148 ± 0.011	0.15 ± 0.026
YPGMFLQLVWWI	0.4297 ± 0.0022	0.552 ± 0.036	0.433 ± 0.03	0.5804 ± 0.0042	0.1211 ± 0.0011	0.117 ± 0.0026	0.126 ± 0.0019	0.176 ± 0.026
RIFRCYSFYVVV	0.496 ± 0.047	0.587 ± 0.029	0.393 ± 0.026	0.568 ± 0.024	0.272 ± 0.029	0.267 ± 0.031	0.4233 ± 0.0012	0.336 ± 0.021
KSARLYVTSFLC	0.571 ± 0.0067	0.682 ± 0.035	0.623 ± 0.012	0.739 ± 0.023	0.107 ± 0.012	0.123 ± 0.0064	0.179 ± 0.02	0.194 ± 0.0022
RFHFAAPPHRPS	0.703 ± 0.024	0.744 ± 0.0012	0.679 ± 0.027	0.748 ± 0.0096	0.694 ± 0.062	0.668 ± 0.034	0.7583 ± 0.0022	0.879 ± 0.01
CCMLCVVAWSGV	0.424 ± 0.044	0.517 ± 0.097	0.303 ± 0.027	0.5581 ± 0.0018	0.257 ± 0.0051	0.295 ± 0.056	0.524 ± 0.0054	0.359 ± 0.0042
LSLFCFFLLVLF	0.203 ± 0.025	0.224 ± 0.021	0.272 ± 0.047	0.332 ± 0.011	0.305 ± 0.0094	0.206 ± 0.03	0.288 ± 0.0084	0.2279 ± 0.0013
PTFSPSLPPPRS	0.632 ± 0.03	0.715 ± 0.012	0.678 ± 0.027	0.703 ± 0.02	0.712 ± 0.027	0.694 ± 0.022	0.67608 ± 0.00018	0.3693 ± 0.0019
SDAIKITFIIHN	0.687 ± 0.043	0.632 ± 0.024	0.59 ± 0.012	0.667 ± 0.016	0.425 ± 0.01	0.46 ± 0.009	0.586 ± 0.0065	0.473 ± 0.062
RHIRGLNLIKLI	0.316 ± 0.092	0.672 ± 0.034	0.652 ± 0.025	0.69 ± 0.034	0.0672 ± 0.022	0.0745 ± 0.011	0.0777 ± 0.0067	0.161 ± 0.044
LGVLVVCFNATY	0.24 ± 0.0032	0.343 ± 0.0057	0.27 ± 0.014	0.42063 ± 0.00021	0.2506 ± 0.00074	0.264 ± 0.02	0.376 ± 0.017	0.354 ± 0.013
MDLVSEYKIKVN	0.62 ± 0.026	0.712 ± 0.053	0.56 ± 0.034	0.704 ± 0.02	0.176 ± 0.006	0.226 ± 0.038	0.473 ± 0.0088	0.31 ± 0.004
TNHRVRHWILRV	0.665 ± 0.013	0.721 ± 0.0099	0.609 ± 0.024	0.713 ± 0.02	0.253 ± 0.022	0.301 ± 0.019	0.517 ± 0.0083	0.396 ± 0.031
LDHGRVVWVVVS	0.371 ± 0.036	0.43 ± 0.021	0.3 ± 0.034	0.493 ± 0.0092	0.174 ± 0.011	0.201 ± 0.023	0.284 ± 0.008	0.278 ± 0.022
WVVVARIFSVFF	0.484 ± 0.014	0.561 ± 0.02	0.445 ± 0.0061	0.57 ± 0.0013	0.308 ± 0.011	0.35 ± 0.018	0.469 ± 0.038	0.515 ± 0.12
FLFLFLFPFSLI	0.525 ± 0.047	0.571 ± 0.0084	0.476 ± 0.016	0.567 ± 0.009	0.393 ± 0.0097	0.386 ± 0.0079	0.4997 ± 0.0009	0.431 ± 0.0054
PRPSPPLPPPSS	0.665 ± 0.082	0.712 ± 0.011	0.643 ± 0.027	0.739 ± 0.019	0.673 ± 0.032	0.677 ± 0.021	0.688 ± 0.017	0.4726 ± 0.0028

Sequence	protein stability index [1, 3]	protein stability index [1, 4]	protein stability index [1, 5]	protein stability index [1, 6]	protein stability index [1, 7]	protein stability index [1, 8]	protein stability index [1, 9]	protein stability index [2]
YQFDGLVFLRLS	0.716 ± 0.02	0.724 ± 0.0064	0.645 ± 0.014	0.774 ± 0.018	0.3501 ± 0.0014	0.4 ± 0.017	0.6515 ± 0.00071	0.4808 ± 0.0011
DRQMRCVHIHYL	0.647 ± 0.041	0.715 ± 0.028	0.646 ± 0.029	0.697 ± 0.011	0.275 ± 0.016	0.301 ± 0.015	0.532 ± 0.0088	0.412 ± 0.021
LLCLAVVLWFVV	0.216 ± 0.035	0.338 ± 0.019	0.239 ± 0.031	0.4051 ± 0.0011	0.212 ± 0.012	0.241 ± 0.024	0.3362 ± 0.0005	0.307 ± 0.03
APEWGGGDEWWG	0.75 ± 0.04	0.802 ± 0.015	0.691 ± 0.014	0.804 ± 0.019	0.697 ± 0.015	0.7 ± 0.0091	0.7984 ± 0.0027	0.767 ± 0.012
LFRRMWVEIFYV	0.439 ± 0.044	0.541 ± 0.043	0.423 ± 0.029	0.566 ± 0.015	0.0969 ± 0.016	0.119 ± 0.0081	0.155 ± 0.021	0.253 ± 0.046
FLAFSYIRLLFF	0.468 ± 0.05	0.463 ± 0.019	0.454 ± 0.026	0.6128 ± 0.0054	0.135 ± 0.017	0.122 ± 0.023	0.178 ± 0.031	0.237 ± 0.012
LLCSPPPLTVPA	0.394 ± 0.044	0.4424 ± 0.00065	0.324 ± 0.045	0.478 ± 0.017	0.275 ± 0.0087	0.327 ± 0.034	0.44 ± 0.0091	0.454 ± 0.025
ISATYSYIPVVG	0.502 ± 0.0071	0.496 ± 0.011	0.346 ± 0.024	0.541 ± 0.012	0.32388 ± 3.1e-05	0.378 ± 0.023	0.507 ± 0.0073	0.455 ± 0.038
YSALHNPPQPVT	0.665 ± 0.032	0.725 ± 0.014	0.6556 ± 0.0065	0.7216 ± 0.0049	0.658 ± 0.014	0.658 ± 0.011	0.6971 ± 0.0062	0.736 ± 0.02
GGWSFSSLWKIA	0.625 ± 0.066	0.817 ± 0.015	0.765 ± 0.038	0.8379 ± 0.0033	0.126 ± 0.013	0.127 ± 0.019	0.205 ± 0.012	0.301 ± 0.09
GGGEGVVWVRLG	0.537 ± 0.054	0.72 ± 0.011	0.637 ± 0.0046	0.737 ± 0.009	0.116 ± 0.012	0.131 ± 0.0021	0.19 ± 0.01	0.272 ± 0.018
GLSLLLLWFKVC	0.174 ± 0.0095	0.36 ± 0.0093	0.307 ± 0.027	0.463 ± 0.014	0.0902 ± 0.0054	0.104 ± 0.025	0.0839 ± 0.013	0.169 ± 0.017
RFRFRRTCLYAT	0.5745 ± 0.0034	0.588 ± 0.077	0.501 ± 0.028	0.655 ± 0.013	0.0931 ± 0.039	0.14 ± 0.0057	0.217 ± 0.033	0.197 ± 0.0089
GGVWVLGVAVVW	0.114 ± 0.014	0.132 ± 0.029	0.246 ± 0.019	0.349 ± 0.017	0.207 ± 0.0064	0.236 ± 0.023	0.275 ± 0.0036	0.348 ± 0.062
GFVLMLLVRFEL	0.299 ± 0.037	0.416 ± 0.0054	0.309 ± 0.031	0.474 ± 0.015	0.328 ± 0.011	0.294 ± 0.046	0.465 ± 0.035	0.419 ± 0.034
RTKIKKKIMKNI	0.621 ± 0.051	0.718 ± 0.032	0.667 ± 0.023	0.716 ± 0.029	0.473 ± 0.052	0.532 ± 0.016	0.651 ± 0.037	0.515 ± 0.062
VFRECSFFLVCC	0.255 ± 0.0076	0.287 ± 0.011	0.281 ± 0.026	0.366 ± 0.0094	0.224 ± 0.0033	0.252 ± 0.032	0.315 ± 0.016	0.333 ± 0.036
PILRGRPTPAIL	0.691 ± 0.031	0.731 ± 0.013	0.662 ± 0.018	0.7426 ± 0.0046	0.681 ± 0.018	0.668 ± 0.023	0.7026 ± 0.0044	0.708 ± 0.021
LLMPLLLHSLVW	0.354 ± 0.021	0.396 ± 0.012	0.308 ± 0.019	0.455 ± 0.0014	0.308 ± 0.0067	0.335 ± 0.0096	0.434 ± 0.024	0.409 ± 0.005
